Data as given in patent US20220251215A1 (Regeneron, published 2022).

B1: mAb28075P (antibody, human IgG4 S228P, kappa, V domains shown)
VH: EVQLVESGGGVVQPGGSLRLSCAASGFTFDDYAMHWVRQAPGKGLEWVSLISGDGDNTYYADSVKGRFTISRDNNKNSLYLQMNSLRTEDTAFYYCAKELIFGKVLHDFYYYVMDVWGQGTTVTVSS
VL: not shown
B2: mAb28113P (antibody, human IgG4 S228P, kappa, V domains shown)
VH: EVQLVESGGGVVQPGGSLRLSCAASGFTFDDYAMHWVRQAPGKGLEWVSLISGGGGGTYYSDSVKGRFTISRDTSKDSLYLQMNSLRTEDTALYYCAKDMVFGVVTPYYYFALDVWGQGTTVTVSS
VL: not shown
B3: mAb24958N (antibody, human IgG4 S228P, kappa, V domains shown)
VH: QVQLQESGPGLVKPSQTLSLTCTVSGGSIISDGYYWSWIRQHPGKGLEWIGYVDYSGNTYYNPSLKSRIIMSVDTSKNQFSLKLTSVTAADTAVYFCVREGPLRDAFEIWGQGTMVTVSS
VL: DIQMTQSPSSLSASVGDRVTITCRTSQSISRYLNWYQQKPGKAPKLLIFAASSLQSGVPSRFSGSGSGADFTLTISSLQPEDFATYYCQQSYSTPPITFGQGTRLEIKR
B4: mAb24956N (antibody, human IgG4 S228P, kappa, V domains shown)
VH: EVQLVESGGGVVQPGGSLRLSCAASGFTFDDYAMYWVRQAPGKGLEWVSLISGDGGSMYYADSVKGRFTISRDNSKNSLYLQMNSLRTEDTALYYCAKDMIFYAFWSGYGSSDYYYYVMDVWGQGTTVTVYS
VL: not shown
B5: mAbm24955N (antibody, V domains shown)
VH: EVQLVESGGGVVQPGGSLRLSCVASGFTFDDYAMYWVRQVPGKDLEWVSLISGDGDITYYVDSVKGRFTVSRDNNKNSLYLQMKSLRVEDTALYYCAKDMIYYASWSGYGSSDYYYYVMDVWGQGTTVTVSS
VL: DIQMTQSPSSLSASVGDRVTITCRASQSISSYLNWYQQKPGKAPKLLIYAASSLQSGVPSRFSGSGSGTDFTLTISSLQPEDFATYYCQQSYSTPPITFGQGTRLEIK
notes: the prefix mAbm is not explained (perhaps a mouse constant region)
B6: mAb29822P2 (antibody, human IgG4 S228P, kappa, V domains shown)
VH: EVQLVESGGGVVQPGGSLRLSCAVSGFTFDDYAMHWVRQAPGKGLEWVSLISGDGGSTHYADSVKGRFTISRDNSKNSLYLQMNSLRTGDTALYYCAKDMIFAVVITDYHYYGMDVWGQGTTVTVSS
VL: not shown

These binders were tested against T1, monomeric HLA-A2:NY-ESO-1(156-165) (V at position 165) peptide complex, 2906 (assay: SPR, 37 C, antibody captured, monomeric complex injected).
T1 construct: also called soluble HLA-A2:NY-ESO-1 peptide complex

Binder	Kd [pM]	t½ [min]
B1	1000	9.1
B2	1940	7.9

The binders below were run against T1, monomeric HLA-A2:NY-ESO-1(156-165) (V …) (assay: SPR, 25 C, antibody captured, monomeric complex injected;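 also: antibody held on sensor chip via immobilized anti-human or anti-mouse Fc antibody, rate constants derived by fitting sensorgrams to a 1:1 binding model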).

Binder	Kd [pM]	t½ [min]
B3	2770	65.4
B1	388	32.8
B2	639	35.5
B4	387	31.6
B5	2270	9

What follows are binders tested against T2, HLA-A2 on T2 cells pulsed with NY-ESO-1:157-165, wt peptide (C165) (human) (assay: flow cytometry, peptide-pulsed T2 cells).
T2 construct: also called T2 Pulsed NY-ESO-1_157-165

Binder	EC50 [pM]
B3	19000
B1	380
B2	600
B4	470
B6	5400

The binders below were run against HLA-A2 on T2 cells pulsed with FBXL22: 4-12 peptide (human) (assay: flow cytometry, 10 ug/ml, pulsed T2 cells).

Binder	ratio of MFI, pulsed to unpulsed [ratio]
B3	0.5
B1	0.5
B2	0.5
B4	0.5

Each binder was assayed against HLA-A2 on T2 cells pulsed with BCL9L: 1351-1359 peptide (human) (assay: flow cytometry, 10 ug/ml, pulsed T2 cells).

Binder	ratio of MFI, pulsed to unpulsed [ratio]
B1	1.5
B2	1
B6	0.8

The binders below were run against HLA-A2 on T2 cells pulsed with MAGEH1: 90-98 peptide (human) (assay: flow cytometry, 10 ug/ml, pulsed T2 cells).

Binder	ratio of MFI, pulsed to unpulsed [ratio]
B3	0.5
B1	0.5

The binders below were run against HLA-A2 on T2 cells pulsed with EARS2: 306-314 peptide (human) (assay: flow cytometry, 10 ug/ml, pulsed T2 cells).

Binder	ratio of MFI, pulsed to unpulsed [ratio]
B3	0.6
B1	0.5
B2	0.5
B4	0.6
B6	0.5

Each binder was assayed against T2, HLA-A2 on T2 cells pulsed with … (assay: flow cytometry, 10 ug/ml, pulsed T2 cells).

Binder	ratio of MFI, pulsed to unpulsed [ratio]
B3	98.6
B1	58.8
B2	115
B4	125
B6	36.7

The binders below were run against HLA-A2 on T2 cells pulsed with ITCH (807-815) peptide (human) (assay: flow cytometry, 10 ug/ml, pulsed T2 cells).

Binder	ratio of MFI, pulsed to unpulsed [ratio]
B3	1
B1	1
B2	0.9
B4	0.9
B6	0.8

What follows are binders tested against HLA-A2 on T2 cells pulsed with URB1: 1853-1861 peptide (human) (assay: flow cytometry, 10 ug/ml, pulsed T2 cells).

Binder	ratio of MFI, pulsed to unpulsed [ratio]
B3	0.6
B1	0.5
B2	0.6
B4	0.5

What follows are binders tested against HLA-A2 on T2 cells pulsed with GRID1: 7-15 peptide (human) (assay: flow cytometry, 10 ug/ml, pulsed T2 cells).

Binder	ratio of MFI, pulsed to unpulsed [ratio]
B3	0.7
B1	1.4
B2	0.9
B4	1
B6	0.7
